Results on 2 molecules are retold here after publication PMC11162806 (Nucleic Acids Research, 2024).

The target of the experiment is T1, TwinStrep-tagged UPF1 CH domain (residues 110-282) (human, UniProt Q92900 110-282).
T1 sequence (looked up): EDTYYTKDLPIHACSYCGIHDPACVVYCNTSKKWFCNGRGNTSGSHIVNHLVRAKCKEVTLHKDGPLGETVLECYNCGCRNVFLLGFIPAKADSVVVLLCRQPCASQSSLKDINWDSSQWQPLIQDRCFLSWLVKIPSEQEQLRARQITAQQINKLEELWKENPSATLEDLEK
The experiment in a line: ITC.

What is called Kd is the free concentration of one partner at which half of the binding sites on the other are occupied at equilibrium, for simple one-to-one binding. A high value points to lower affinity. EKQESKNPKQELRGRGRGILILPAHTTLSVNSAGSPESAPL (domain or fragment, human, UniProt Q86US8 390-430, looked up) [MBP-tagged SMG6 residues 390-430 (SMG6 CH-binding domain)]: the affinity, expressed as Kd, was 4.28 ± 0.25 µM.

B1: MBP-tagged UPF2 residues 1095-1250 (UPF2 CH-binding domain) (domain or fragment, human, UniProt Q9HAU5 1095-1250, looked up)
chain: VMIKGGGLKHVPCVEDEDFIQALDKMMLENLQQRSGESVKVHQLDVAIPLHLKSQLRKGPPLGGGEGEAESADTMPFVMLTRKGNKQQFKILNVPMSSQLAANHWNQQQAEQEERMRMKKLTLDINERQEQEDYQEMLQSLAQRPAPANTNRERRP
In the case of B1, the Kd was determined as 1.46 ± 0.25 µM. Compared with the last molecule, the Kd is about 2.9-fold lower.
